Assay results published in patent US20250074946A1 (HEBEI FITNESS BIOTECHNOLOGY, published 2025).

The binders below were run against HLA-DR1 (human) (assay: fluorescence polarization competition; displaces 25 nM fluorescently-labeled polypeptide from 500 nM HLA-DR1).

Binder	IC50 [µM]
IWYISCFGCETHAML [APL9]	5.09
IWYITCFGCETHAML [APL10]	5.87
IWYINCFACETHAML [APL11]	3.98
IWYINCFVCETHAML [APL12]	5.2
RSFALASSETGVG [APL13]	5.02
RSFTAASSETGVG [APL14]	6.54
RSFTLAASETGVG [APL16]	5.55
RSFTLASSATGVG [APL17]	3.53
RSFTLASSEAGVG [APL18]	4.88
SIDLKDKKYKNIGAKLVQLVANNTNEEA [APL20]	3.88
MGPKGRTVIIEQSLGSPKVTK (also called ALP21) [APL21]	4.15
FKGEQAGAGE [FNS007 (APL2)]	3.37
IWYIQCFGCETHAML [APL8]	5.47

Target: HLA-DR1 (human)
Experiment: as above
Remark: another data set of the same source

Binder	IC50 [µM]
FKGRQAGAGE [APL41]	88.4
IWYINCFGCRTAAML [APL55]	98.8
IWYINCFGCHTAAML [APL56]	69.2
RSGTLASAETGVG [APL60]	61.7
